EP4631972A1, “SITE-SPECIFIC COUPLED PEGYLATED INTERLEUKIN-2 MUTANT WITH RECEPTOR AFFINITY PREFERENCE AND USE THEREOF” (priority 2022, dated 2024)
Numbered stars: 1 amine (or outer) side, 2 acyl side, 3 side chain; on linkers, the order of the positions; unused ones are H or OH. Square brackets hold non-standard residues; d marks the D form. Prk = N-ε-propargyloxycarbonyl-L-lysine, C#CCOC(=O)NCCCC[C@H](N[*:1])C(=O)[*:2]; PEG60k = one 60 kD PEG attached to the residue; Phe(4-Ac) = CC(=O)c1ccc(C[C@H](N)C(=O)O)cc1

T1: IL-2βγ dual receptor (Homo sapiens, UniProt P14784+P31785)
T1 construct: Uniprot P14784 1Met-551Val was constructed into plasmid pcDNA3.1(+); Uniprot P31785 1Met-551Thr was constructed into plasmid pcDNA3.1/zeo; expressed in transfected cells; host or cells: 293EC18 cells, transient co-transfection with pCMV/JAK3 and PGL4.52/STAT5RE
T1 sequence (P14784 27-551): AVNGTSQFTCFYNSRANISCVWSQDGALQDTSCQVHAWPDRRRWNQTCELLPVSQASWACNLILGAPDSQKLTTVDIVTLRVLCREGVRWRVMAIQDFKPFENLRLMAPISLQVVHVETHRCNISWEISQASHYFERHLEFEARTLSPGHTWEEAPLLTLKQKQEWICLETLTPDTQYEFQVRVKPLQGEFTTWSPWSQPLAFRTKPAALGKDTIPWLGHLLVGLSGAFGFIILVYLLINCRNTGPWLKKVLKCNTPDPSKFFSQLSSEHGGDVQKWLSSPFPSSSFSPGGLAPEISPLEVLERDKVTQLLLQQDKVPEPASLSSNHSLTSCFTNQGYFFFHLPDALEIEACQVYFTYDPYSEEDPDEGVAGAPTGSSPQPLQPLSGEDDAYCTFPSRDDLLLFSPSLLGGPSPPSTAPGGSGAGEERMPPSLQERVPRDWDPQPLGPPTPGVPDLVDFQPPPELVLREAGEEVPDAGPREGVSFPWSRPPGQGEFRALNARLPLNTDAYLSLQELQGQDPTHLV
T1 sequence (P31785 23-369): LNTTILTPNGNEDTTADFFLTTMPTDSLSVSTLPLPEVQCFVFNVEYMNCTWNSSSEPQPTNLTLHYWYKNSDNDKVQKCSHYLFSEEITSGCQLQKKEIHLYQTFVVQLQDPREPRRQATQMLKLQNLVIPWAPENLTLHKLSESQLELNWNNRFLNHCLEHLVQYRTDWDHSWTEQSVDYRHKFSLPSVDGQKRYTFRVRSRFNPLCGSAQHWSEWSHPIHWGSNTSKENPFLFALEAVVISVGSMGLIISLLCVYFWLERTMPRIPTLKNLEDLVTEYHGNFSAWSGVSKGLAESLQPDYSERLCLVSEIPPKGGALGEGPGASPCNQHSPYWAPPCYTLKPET

T2: IL-2Rαβγ triple receptor (UniProt P01589 22-272; P14784 27-551; P31785 23-369)
T2 sequence (looked up) 1: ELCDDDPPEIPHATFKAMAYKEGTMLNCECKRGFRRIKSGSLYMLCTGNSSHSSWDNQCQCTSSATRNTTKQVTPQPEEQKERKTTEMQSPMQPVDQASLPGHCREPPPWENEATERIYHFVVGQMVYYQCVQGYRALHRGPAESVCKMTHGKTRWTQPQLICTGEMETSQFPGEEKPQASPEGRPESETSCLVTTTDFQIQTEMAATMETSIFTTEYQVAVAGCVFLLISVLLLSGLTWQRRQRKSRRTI
T2 sequence (looked up) 2: T1 sequence (P14784 27-551)
T2 sequence (looked up) 3: T1 sequence (P31785 23-369)

B1: 80k-1PEG-IL2-N88R-S75C: IL-2 mutant N88R, S75C with one 80k PEG conjugated to cysteine 75 (conjugate)
chain: APTSSSTKKTQLQLEHLLLDLQMILNGINNYKNPKLTRMLTFKFYMPKKATELKHLQCLEEELKPLEEVLNLAQC(PEG 80 kDa)KNFHLRPRDLISRINVIVLELKGSETTFMCEYADETATIVEFLNRWITFSQSIISTLT
B2: 60k-1PEG-IL2-N88R-N33Prk (ligand)
chain: APTSSSTKKTQLQLEHLLLDLQMILNGINNYK[Prk](PEG 60 kDa)PKLTRMLTFKFYMPKKATELKHLQCLEEELKPLEEVLNLAQSKNFHLRPRDLISRINVIVLELKGSETTFMCEYADETATIVEFLNRWITFSQSIISTLT
B3: 40k-1PEG-IL2-N88R-N33Prk (ligand)
chain: APTSSSTKKTQLQLEHLLLDLQMILNGINNYK[Prk](PEG‑azide 40 kDa)PKLTRMLTFKFYMPKKATELKHLQCLEEELKPLEEVLNLAQSKNFHLRPRDLISRINVIVLELKGSETTFMCEYADETATIVEFLNRWITFSQSIISTLT
B4: 40k-1PEG-IL2-N88R-N77Prk (ligand)
chain: APTSSSTKKTQLQLEHLLLDLQMILNGINNYKNPKLTRMLTFKFYMPKKATELKHLQCLEEELKPLEEVLNLAQSK[Prk](PEG‑azide 40 kDa)FHLRPRDLISRINVIVLELKGSETTFMCEYADETATIVEFLNRWITFSQSIISTLT
B5: 20k-1PEG-IL2-N88R-N77Prk (ligand)
chain: APTSSSTKKTQLQLEHLLLDLQMILNGINNYKNPKLTRMLTFKFYMPKKATELKHLQCLEEELKPLEEVLNLAQSK[Prk](PEG‑azide 20 kDa)FHLRPRDLISRINVIVLELKGSETTFMCEYADETATIVEFLNRWITFSQSIISTLT
B6: 20k-1PEG-IL2-N88R-N33Prk (ligand)
chain: APTSSSTKKTQLQLEHLLLDLQMILNGINNYK[Prk](PEG‑azide 20 kDa)PKLTRMLTFKFYMPKKATELKHLQCLEEELKPLEEVLNLAQSKNFHLRPRDLISRINVIVLELKGSETTFMCEYADETATIVEFLNRWITFSQSIISTLT
B7: 60k-1PEG-IL2-N88R-N77Prk (ligand)
chain: APTSSSTKKTQLQLEHLLLDLQMILNGINNYKNPKLTRMLTFKFYMPKKATELKHLQCLEEELKPLEEVLNLAQSK[Prk](PEG 60 kDa)FHLRPRDLISRINVIVLELKGSETTFMCEYADETATIVEFLNRWITFSQSIISTLT
B8: 20k-1PEG-IL2-N88R-N33pAcF (ligand)
chain: APTSSSTKKTQLQLEHLLLDLQMILNGINNYK[Phe(4-Ac)](PEG‑hydroxylamine 20 kDa)PKLTRMLTFKFYMPKKATELKHLQCLEEELKPLEEVLNLAQSKNFHLRPRDLISRINVIVLELKGSETTFMCEYADETATIVEFLNRWITFSQSIISTLT
modifications: not fully specified
B9: 60k-1PEG-IL2-N88R-N33pAcF (ligand)
chain: APTSSSTKKTQLQLEHLLLDLQMILNGINNYK[Phe(4-Ac)](PEG60k)PKLTRMLTFKFYMPKKATELKHLQCLEEELKPLEEVLNLAQSKNFHLRPRDLISRINVIVLELKGSETTFMCEYADETATIVEFLNRWITFSQSIISTLT
B10: 20k-1PEG-IL2-N88R-N77pAcF (ligand)
chain: APTSSSTKKTQLQLEHLLLDLQMILNGINNYKNPKLTRMLTFKFYMPKKATELKHLQCLEEELKPLEEVLNLAQSK[Phe(4-Ac)](PEG‑hydroxylamine 20 kDa)FHLRPRDLISRINVIVLELKGSETTFMCEYADETATIVEFLNRWITFSQSIISTLT
modifications: not fully specified
B11: 40k-1PEG-IL2-N88R-N77pAcF (ligand)
chain: APTSSSTKKTQLQLEHLLLDLQMILNGINNYKNPKLTRMLTFKFYMPKKATELKHLQCLEEELKPLEEVLNLAQSK[Phe(4-Ac)](PEG‑hydroxylamine 40 kDa)FHLRPRDLISRINVIVLELKGSETTFMCEYADETATIVEFLNRWITFSQSIISTLT
modifications: not fully specified
B12: 60k-1PEG-IL2-N88R-N77pAcF (ligand)
chain: APTSSSTKKTQLQLEHLLLDLQMILNGINNYKNPKLTRMLTFKFYMPKKATELKHLQCLEEELKPLEEVLNLAQSK[Phe(4-Ac)](PEG60k)FHLRPRDLISRINVIVLELKGSETTFMCEYADETATIVEFLNRWITFSQSIISTLT
B13: 40k-1PEG-IL2-N88R-N33pAcF (ligand)
chain: APTSSSTKKTQLQLEHLLLDLQMILNGINNYK[Phe(4-Ac)](PEG‑hydroxylamine 40 kDa)PKLTRMLTFKFYMPKKATELKHLQCLEEELKPLEEVLNLAQSKNFHLRPRDLISRINVIVLELKGSETTFMCEYADETATIVEFLNRWITFSQSIISTLT
modifications: not fully specified

The molecules below were run against T1, IL-2βγ dual receptor (assay: STAT5 reporter gene assay, activation of IL-2βγ dual receptor in 293EC18/βγ/JAK3/STAT5 cells). Conditions: Figure 1, concentration of 65.2 nM.
Type: cell-based
Description: Since the binding of IL-2 to the β and γ subunits of its receptor induces STAT5 phosphorylation, which subsequently leads to dimerization and translocation into the nucleus to promote target gene transcription, this example evaluates the ability of the mutant IL-2 polypeptides to induce signaling through the IL-2 receptor by measuring STAT5 phosphorylation.
Adherent 293EC18 cells were cultured to about 90% confluence using conventional methods. After trypsin digestion, the cells were resuspended in cell culture medium to 4×10^5 cells/ml and 50 µl/well were added to two 96-well cell culture plates. After incubation at 37°C for 48 h, the supernatant was aspirated and fresh culture medium was added. According to the manufacturer's method, four plasmids, pcDNA3.1(+)/CD122 (constructed by Nanjing Novoacine Biotechnology Co., Ltd, Uniprot P14784 1Met-551Val was constructed into plasmid pcDNA3.1(+)), pcDNA3.1/puro/CD132 (constructed by Nanjing Novoacine Biotechnology Co., Ltd, Uniprot P31785 1Met-551Thr was constructed into plasmid pcDNA3.1/zeo), pCMV/JAK3 (Sino Biological), and PGL4.52/STAT5RE (Promega) were transiently transfected into 293EC18 cells using a cationic transfection reagent (ExFect Transfection Reagent, Vazyme). The obtained cells were named 293EC18/βγ/JAK3/STAT5 cells. Alternatively, five plasmids, pcDNA3.1/zeo/CD25 (constructed by Nanjing Novoacine Biotechnology Co., Ltd, Uniprot P01589 1Met-551Ile constructed into plasmid pcDNA3.1/zeo), pcDNA3.1(+)/CD122 (constructed by Nanjing Novoacine Biotechnology Co., Ltd, Uniprot P14784 1Met-551Val constructed into plasmid pcDNA3.1(+)), pcDNA3.1/puro/CD132 (constructed by Nanjing Novoacine Biotechnology Co., Ltd, UniprotP31785 1Met-551Thr constructed into plasmid pcDNA3.1/zeo), pCMV/JAK3 (Sino Biological), and PGL4.52/STAT5RE (Promega) were transiently transferred into 293EC18 cells, and the obtained cells were named 293EC18/αβγ/JAK3/STAT5 cells. The transfected cells were incubated at 37°C and 5% CO2 for another 6 h.
Each IL2 mutant was diluted 4-fold in a gradient manner using PBS buffer, with a total of 11 dilutions and a starting concentration of 65.2 nM. In the above cell culture plates, 50 µl/well of each of the serially diluted IL2 mutant samples was added in duplicate. Then, the cell culture plate was placed in an incubator at 37°C and 5% CO2 for overnight culture. The cell culture plates were kept at room temperature for 20 ± 5 minutes to equilibrate the plates to room temperature. Bio-Lite Luciferase Assay System reagents that have been mixed and equilibrated to room temperature were added to the cell culture plates to be tested at 100 µl/well, placed on a microplate shaker at 450 rpm to mix for 2 minutes, then allowed to stand at room temperature for 3 minutes, and the chemiluminescence value was detected with an enzyme plate reader.
The logarithm of the final concentration of each IL-2 mutant sample was used as the X-axis, and the chemiluminescence detection results were used as the Y-axis for plotting. Data were analyzed using the four-parameter logistic regression model in GraphPad Prism 9. Table 2 EC50 values for the activation of the IL-2αβγ triple receptor by PEG-IL-2 mutants as determined by a reporter gene assay.
According to the method of Example 3, each polyethylene glycol-modified mutant obtained in this example was assessed for the binding preference to the IL2 receptors by a reporter assay. Table 4 EC50 values for the activation of the IL-2αβγ triple receptor by PEG-IL-2 mutants as determined by a reporter gene assay.
Referring to Example 3, the phosphorylation of STAT5 was used to evaluate the ability of the PEG-modified IL-2 mutants having a non-natural amino acid mutation prepared in Example 14 to induce signal transduction via the IL-2 receptor. […]
B1 was tested, and the “activation effect on the IL-2Rβγ dual receptor compared with control IL-2 N88R” value was “lower activation effects”.

Same assay, conditions: Figure 2, all concentrations
In the case of B1, the “activation effect on / affinity to IL-2Rβγ dual receptor compared with control IL-2 N88R” value is reported as “further reduced the affinity to IL-2Rβγ”.

Each molecule was assayed against T2, IL-2Rαβγ triple receptor (assay: cell-based or functional assay). Conditions: not given.
With B2 the “Activation of IL-2αβγ receptor EC50 (STAT5 luciferase reporter gene assay)” value (from here on “Activation of IL-2αβγ receptor EC50”) was 0.368 nM.
With B3 the “Activation of IL-2αβγ receptor EC50” value was 0.443 nM.
With B4 the “Activation of IL-2αβγ receptor EC50” value was 0.517 nM.
With B5 the “Activation of IL-2αβγ receptor EC50” value was 0.361 nM.
For B6, the “Activation of IL-2αβγ receptor EC50” value was 0.323 nM.
With B7 the “Activation of IL-2αβγ receptor EC50” value was 0.417 nM.

Target: T2, IL-2Rαβγ triple receptor
Assay: cell-based or functional assay
Conditions: not given
Remark: another data set of the same source
In the case of B8, the “Activation of IL-2αβγ triple receptor EC50 (STAT5 luciferase reporter gene assay)” value is reported as 0.319 nM.
B9 was tested, and the “Activation of IL-2αβγ triple receptor EC50 (STAT5 luciferase reporter gene assay)” value was 9.21 nM.
B10 was tested, and the “Activation of IL-2αβγ triple receptor EC50 (STAT5 luciferase reporter gene assay)” value was 0.5 nM.
For B11, the “Activation of IL-2αβγ triple receptor EC50 (STAT5 luciferase reporter gene assay)” value was 1.92 nM.
For B12, the “Activation of IL-2αβγ triple receptor EC50 (STAT5 luciferase reporter gene assay)” value was 5.12 nM.
With B13 the “Activation of IL-2αβγ triple receptor EC50 (STAT5 luciferase reporter gene assay)” value was 3.69 nM.
